Measured values published in publication PMC6033355.

Columns and labels:
[1] = molecular target: HD_(N-TIMP2,V3) bi-specific heterodimer (N-TIMP2 fused by a linker to V3, the engineered soluble extracellular domain of the IL-17A receptor, with human IgG1 Fc and 6xHis); experiment: BLI; Octet Red; HD_(N-TIMP2,V3) or V3 loaded on Protein A sensors (10 ug/ml, 300 s); IL-17A or MMP-9CAT in solution at 50, 100, 200 nM; 300 s association, 1800-2500 s dissociation; 30 C; PBS, 1% BSA, 0.05% Tween; 1:1 binding model
[2] = molecular target: V3, soluble IL-17RA (extracellular domain of the IL-17A receptor with point mutations that increase affinity for IL-17A); experiment: as above
[3] = molecular target: MMP-9 catalytic domain (Homo sapiens) (UniProt P14780); details: cited from earlier work
MMP-9 catalytic domain (Homo sapiens), sequence (P14780 107-443): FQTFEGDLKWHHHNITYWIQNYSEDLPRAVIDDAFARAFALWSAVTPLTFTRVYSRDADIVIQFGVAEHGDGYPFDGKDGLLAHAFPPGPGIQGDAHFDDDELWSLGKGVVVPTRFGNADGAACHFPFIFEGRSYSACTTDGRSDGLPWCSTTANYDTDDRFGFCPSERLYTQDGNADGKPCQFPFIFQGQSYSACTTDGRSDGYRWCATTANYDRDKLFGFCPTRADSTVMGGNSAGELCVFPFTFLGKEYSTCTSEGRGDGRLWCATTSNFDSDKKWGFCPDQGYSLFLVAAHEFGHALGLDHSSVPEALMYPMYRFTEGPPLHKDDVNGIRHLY

IL-17A (interleukin-17A), sequence (Q16552 24-155): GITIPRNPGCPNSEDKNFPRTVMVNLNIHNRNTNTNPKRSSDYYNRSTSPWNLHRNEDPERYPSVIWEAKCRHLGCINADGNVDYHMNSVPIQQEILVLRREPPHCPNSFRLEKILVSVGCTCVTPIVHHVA
N-TIMP2 N-terminal domain, sequence (P16035 27-153): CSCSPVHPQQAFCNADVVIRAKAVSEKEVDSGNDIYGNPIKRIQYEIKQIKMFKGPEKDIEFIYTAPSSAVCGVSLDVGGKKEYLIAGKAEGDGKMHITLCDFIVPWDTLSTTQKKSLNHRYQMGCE

IL-17A (interleukin-17A) (from UniProt Q16552 24-155) (ligand)
Kd [1]: 48 pM
Kd [2]: 122 pM

N-TIMP2 N-terminal domain (from UniProt P16035)
Ki [3]: 100 pM
